± gives the uncertainty stated by the source.
Assay: amyloid nucleation score (Sup35N fusion, yeast selection) (log enrichment); library NNK1; higher = more nucleation; inactive = no reads after selection
How it was run: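 Output and input plasmid inserts were sequenced by Illumina after psi-negative yeast carrying Sup35N fused to peptides of 20 random codons had been induced 24 hours with 100 μM copper sulfate and grown 7 days at 30°C on medium lacking adenine and uracil. The nucleation score is the DiMSum log enrichment of output over input reads, centred on the mode score of non-aggregating sequences. Sequences with under 100 input reads were excluded.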

Substance | amyloid nucleation score
YGSAVVRQCFG | -0.114 ± 0.35
FGSMLNGVRYQ | 0.747 ± 0.66
EQCHRVFRAL | 0.362 ± 0.55
ACYNGHTSRWLR | 1.09 ± 0.85
YRVVACMGCALRLVWLARYR | -0.31 ± 0.3
LGRGSAVSSPWVIIRIVNML | 0.784 ± 0.72
RIELLWRKVSGKCLVQDFDI | 0.117 ± 0.47
LRRGMQHAFADSENFVGSHV | -0.168 ± 1.3
FVGGPPMIQYVVPV | 0.326 ± 0.42
VKPLLIHIRALLEM | 1.55 ± 0.52
FNRNRIGGEIVMSNNYMYHS | 1.58 ± 0.33
FCWKLGANIDVDECWRWAAD | 1.29 ± 0.63
SVWGIILYYWKY | 0.388 ± 0.43
LCGIVRKILQTSKRSR | 0.063 ± 0.49
DRCNDAVGRKRRRTKMRGLY | 0.457 ± 0.45
MRITILYYLGKQNRSFWWFC | 0.108 ± 0.35
RLRLIFTCMR | 3.08 ± 0.11
PSCRC | inactive
KLSRDFRGFYRT | inactive
FGMSRW | 0.166 ± 0.78
QGLGALMVRSFSFYLFVW | -0.241 ± 1.4
LYPKSFYTKYYEWYTSGLIF | 0.236 ± 0.57

Substance | amyloid nucleation score
SIRSVLFVSTVDDTPPYQGF | inactive
LLSYPIPDMYSIEATTKRRI | 0.133 ± 1.4
TRYMICSL | 0.121 ± 0.6
IRCVERGVWSCTFHIQGNCF | -0.84 ± 0.91
LYTITLLIALALTTEQAPPR | 1.67 ± 0.28
TKIKYGDKSPKHYYMAS | -0.174 ± 0.6
IFAQKGYTSRFSILM | -0.565 ± 0.58
YVFVWMRYTSFWVMNTFYSS | 0.193 ± 0.46
TMIWFQLRTTLLNYQATVFL | inactive
DGSYTTRGRGHGESGRSGCW | 0.17 ± 0.42
NVIGSGE | 1.08 ± 0.51
YQDAGVLGRLPHLFTNGSFT | 0.021 ± 0.93
DGQVSAVESMLRRWDSPVKG | 0.18 ± 1
LNVYWRPCNN | 0.717 ± 0.9
SVGSLRRFSDFIYWNVVLNM | -0.3 ± 0.58
GFVSAKLIPCAVLQKGLLPV | 0.313 ± 0.51
CWMTGWTYPVY | 3.85 ± 0.15
SLIKLVYWSHARNNCELW | 3.5 ± 0.074
ETRTHWVRLAANNNFH | 0.135 ± 0.88
GFDKLVGPCGYGLRRGSLWR | 0.781 ± 0.52
AQFFVLSSLW | -0.085 ± 0.93
MTWMPFGPHTAGMMGHLYFG | -0.398 ± 0.64

Substance | amyloid nucleation score
SRLVRSSLHMGAKTRVIQL | 0.881 ± 0.26
FGKLYF | -0.52 ± 0.98
LVTGSCNQWHGKW | -0.062 ± 0.39
GAICQGLINDVVGRGDGMMR | 1.19 ± 0.97
MSMLLDSDCLRYFSQEVFWV | -0.742 ± 1.4
LFQSA | 0.854 ± 0.17
SFDADFSFRVRVFYDQSISI | -0.035 ± 0.48
KSGLRTLFSGVGHCWDALVY | 0.198 ± 0.45
CIYELRGLVRFWSHRVNRER | -0.445 ± 0.45
WNELCHQLNWCICRVAGFVK | -0.637 ± 0.62
VWRKTLRWPLGPWAGRS | -1.11 ± 0.46
CFSMILVYYVLFARFVSWSM | 0.15 ± 0.41
SVNRCFSAFLSQAIT | 0.042 ± 0.53
WRVSVKVVSAELEGMRNFAV | 0.259 ± 0.49
NNMWSILTAAWDHVCSWRSS | 1.77 ± 0.5
FLQLLGGLRSYKTRVCMWCV | -2.21 ± 2.7
YKMYWISVAVLKRYNLLHQS | -0.111 ± 0.44
CLGHISVMNVTASNANYHFS | 7.237 ± 0.053
TNISQGRCKVECLPITSIYG | 0.247 ± 0.75
CGLKNFGVLSFRSIDCQRKG | -1.48 ± 1.1
HVLMIRWLWWGISRACKNSR | -0.193 ± 1.6
LVELNIGTTLCWQMRLRNVG | -0.037 ± 1.7

Substance | amyloid nucleation score
SGMYSMYQDKT | -0.716 ± 0.5
HTTFKGKSEAATRIIATQAR | -0.011 ± 0.41
AFLQLDS | 0.665 ± 0.36
IYGCTCVDFGLSSNS | -0.46 ± 0.84
VSVTVLGRWR | 3.55 ± 0.19
RLFCGSWDNFREGE | -0.063 ± 0.58
SECIVFYIPTYKHD | 7.909 ± 0.059
YMYEMGICFELDDTHEG | 0.608 ± 0.55
FFLPILGPW | -0.729 ± 1.7
YSLNFYAMPRSSI | 3.76 ± 0.1
WRGISVQAVRRLCAKNKSSR | 1.25 ± 0.85
TSDNFCQCHCSFFQSWFGG | -0.27 ± 0.63
QMKAVLRLRINICCPQVRGT | 4.66 ± 0.1
FLCLI | -2.52 ± 2.7
LYEVNWVSYRMFAVGVRYVL | -0.397 ± 0.36
LSRHGKVKCKLLATGGLT | 0.184 ± 0.45
SLMRPCKCNAYCMIELITLY | inactive
STRFPRLDALNGKKFYRKNT | 0.157 ± 0.66
SSYSYSDLRTRYIRITSQLD | 0.203 ± 0.47
THAMCRYQSHGKLLSSGADS | 0.781 ± 0.65
YASCCTDCNWLCFFRRLREA | 7.041 ± 0.054

Source: the supplement of paper PMC12042874
